Measured values taken from patent publication US20220089698A1.

What was measured:
Test in all cases: cell-based or functional assay
[1] = molecular target: 152 patient-derived subtype B viruses obtained from pre-ART plasma
[2] = molecular target: HIV-1 envelope glycoprotein (Env, gp120) of virus 1003 (HIV-1)
[3] = molecular target: HIV-1 envelope glycoprotein (Env, gp120) of virus 1012 (HIV-1)
[4] = molecular target: HIV-1 envelope glycoprotein (Env, gp120) of virus 1413 (HIV-1)
[5] = molecular target: HIV-1 envelope glycoprotein (Env, gp120) of virus 1489 (HIV-1)
[6] = molecular target: HIV-1 envelope glycoprotein (Env, gp120) of virus 302076 (HIV-1)
[7] = molecular target: HIV-1 envelope glycoprotein (Env, gp120) of virus 7015 (HIV-1)
[8] = molecular target: HIV-1 envelope glycoprotein (Env, gp120) of virus 7051 (HIV-1)
[9] = molecular target: HIV-1 envelope glycoprotein (Env, gp120) of virus 7103 (HIV-1)
[10] = molecular target: HIV-1 envelope glycoprotein (Env, gp120) of virus 7141 (HIV-1)
[11] = molecular target: HIV-1 envelope glycoprotein (Env, gp120) of virus 7467 (HIV-1)
[12] = molecular target: HIV-1 envelope glycoprotein (Env, gp120) of virus 7552 (HIV-1)
[13] = molecular target: HIV-1 envelope glycoprotein (Env, gp120) of virus 7576 (HIV-1)
[14] = molecular target: HIV-1 envelope glycoprotein (Env, gp120) of virus 7595 (HIV-1)
[15] = molecular target: HIV-1 envelope glycoprotein (Env, gp120) of virus 7714 (HIV-1)
[16] = molecular target: HIV-1 envelope glycoprotein (Env, gp120) of virus 8106 (HIV-1)
[17] = molecular target: HIV-1 envelope glycoprotein (Env, gp120) of virus 8110 (HIV-1)
[18] = molecular target: HIV-1 envelope glycoprotein (Env, gp120) of virus 8117 (HIV-1)
[19] = molecular target: HIV-1 envelope glycoprotein (Env, gp120) of virus 8134 (HIV-1)
[20] = molecular target: HIV-1 envelope glycoprotein (Env, gp120) of virus 8176 (HIV-1)
[21] = molecular target: HIV-1 envelope glycoprotein (Env, gp120) of virus 8318 (HIV-1)
[22] = molecular target: HIV-1 envelope glycoprotein (Env, gp120) of virus 8320 (HIV-1)
[23] = molecular target: HIV-1 envelope glycoprotein (Env, gp120) of virus 92HT593 (HIV-1)
[24] = molecular target: HIV-1 envelope glycoprotein (Env, gp120) of virus 92US657 (HIV-1)
[25] = molecular target: HIV-1 envelope glycoprotein (Env, gp120) of virus 92US712 (HIV-1)
[26] = molecular target: HIV-1 envelope glycoprotein (Env, gp120) of virus 92US727 (HIV-1)
[27] = molecular target: HIV-1 envelope glycoprotein (Env, gp120) of virus CHO77 (HIV-1)
[28] = molecular target: HIV-1 envelope glycoprotein (Env, gp120) of virus REJO (HIV-1)
[29] = molecular target: HIV-1 envelope glycoprotein (Env, gp120) of virus THRO (HIV-1)
[30] = molecular target: HIV-1 envelope glycoprotein (Env, gp120) of virus VS001 (HIV-1)
[31] = molecular target: HIV-1 envelope glycoprotein (Env, gp120) of virus VS004 (HIV-1)
[32] = molecular target: HIV-1 envelope glycoprotein (Env, gp120) of virus VS017 (HIV-1)
[33] = molecular target: HIV-1 envelope glycoprotein (Env, gp120) of virus VS026 (HIV-1)
[34] = molecular target: HIV-1 envelope glycoprotein (Env, gp120) of virus VS030 (HIV-1)
[35] = molecular target: HIV-1 envelope glycoprotein (Env, gp120) of virus VS039 (HIV-1)
[36] = molecular target: HIV-1 envelope glycoprotein (Env, gp120) of virus VS042 (HIV-1)
[37] = molecular target: HIV-1 envelope glycoprotein (Env, gp120) of virus VS043 (HIV-1)
[38] = molecular target: HIV-1 envelope glycoprotein (Env, gp120) of virus VS044 (HIV-1)
[39] = molecular target: HIV-1 envelope glycoprotein (Env, gp120) of virus VS046 (HIV-1)
[40] = molecular target: HIV-1 envelope glycoprotein (Env, gp120) of virus VS049 (HIV-1)
[41] = molecular target: HIV-1 envelope glycoprotein gp120 of virus 92US657 (HIV-1 subtype B, isolate 92US657)
[42] = molecular target: HIV-1 envelope glycoprotein gp120 of virus BaL (HIV-1 BaL (lab adapted strain, subtype B))
[43] = molecular target: HIV-1 envelope glycoprotein gp120 of virus CHO77 (HIV-1 subtype B, virus CHO77)
[44] = molecular target: Env from subtype B plasma isolates (panel of 142 HIV-1 pseudotyped viruses)

B1: 1.52.90-1 (antibody, V domains shown)
VH: QVQLLQSGAAVTKPGASVRVSCEASGYNIRDYFIHWWRQAPGQGLQWVGWINPKTGQPNNPRQFQGRVSLTRHASFDFDTFSFYMDLKALRSDDTAVYFCARQRSDYWDFDVWGSGTQVTVSS
VL: DIQMTQSPSSLSASVGDRATITCQANGYLNWYQQRRGKAPKLLIYDGSKLERGVPSRFSGSRWGQEYNLTISSLQPEDIATYFCQVYEFFGPGTRLDLKR
B1 was tested, and the Breadth (% viruses neutralized with an IC95 ≤ 50 µg/mL) [1] was 78%, the Geomean IC95 (neutralization) [1] was 4.56 µg/mL and the Median IC95 (neutralization) [1] was 4.42 µg/mL.

B2: Antibody 1.1.119-1 (antibody, human IgG1, kappa, V domains shown)
VH: QVQLLQSGAAVTKPGASVRVSCEASGYNIRDYFIHWWRQAPGQGLQWVGWINPKTGQPNNPRQFQGRVSLTRHASWDFDTFSFYMDLKALRSDDTAVYFCARQRSDYWDFDVWGSGTQVTVSS
VL: DIQMTQSPSSLSASVGDRATITCQANGYLNWYQQRRGKAPKLLIYDGSKLERGVPSRFSGSRWGQEYTLTISSLQPEDIATYFCQVYEFFGPGTRLDLKR
For B2, the Virus Neutralization Potency [2] was 0.91 µg/mL, the Virus Neutralization Potency [3] was 1.06 µg/mL and the Virus Neutralization Potency [4] was 4.52 µg/mL. For the same binder, the Virus Neutralization Potency [5] was 0.17 µg/mL, the Virus Neutralization Potency [6] was 0.08 µg/mL and the Virus Neutralization Potency [7] was 1.08 µg/mL. It also gave a Virus Neutralization Potency [8] of 1.89 µg/mL, a Virus Neutralization Potency [9] of 1.16 µg/mL and a Virus Neutralization Potency [10] of 4.98 µg/mL. It also gave a Virus Neutralization Potency [11] of 0.19 µg/mL, a Virus Neutralization Potency [12] greater than 80 µg/mL and a Virus Neutralization Potency [13] of 0.6 µg/mL. For the same binder, the Virus Neutralization Potency [14] was 3.07 µg/mL, the Virus Neutralization Potency [15] was 1.93 µg/mL and the Virus Neutralization Potency [16] was 1.44 µg/mL. For the same binder, the Virus Neutralization Potency [17] was 2.37 µg/mL, the Virus Neutralization Potency [18] was 1.66 µg/mL and the Virus Neutralization Potency [19] was 3.44 µg/mL. The Virus Neutralization Potency [20] was 0.27 µg/mL, the Virus Neutralization Potency [21] was 0.42 µg/mL and the Virus Neutralization Potency [22] was 1.47 µg/mL. For the same binder, the Virus Neutralization Potency [23] was 0.15 µg/mL, the Virus Neutralization Potency [24] was 0.3 µg/mL and the Virus Neutralization Potency [25] was 0.03 µg/mL. It also gave a Virus Neutralization Potency [26] of 43.7 µg/mL, a Virus Neutralization Potency [27] of 0.02 µg/mL and a Virus Neutralization Potency [28] of 0.03 µg/mL. For the same binder, the Virus Neutralization Potency [29] was 2.8 µg/mL, the Virus Neutralization Potency [30] was 0.37 µg/mL and the Virus Neutralization Potency [31] was 6.02 µg/mL. The Virus Neutralization Potency [32] was 2.75 µg/mL, the Virus Neutralization Potency [33] was 0.14 µg/mL and the Virus Neutralization Potency [34] was 4.96 µg/mL. It also gave a Virus Neutralization Potency [35] of 0.13 µg/mL, a Virus Neutralization Potency [36] of 2.19 µg/mL and a Virus Neutralization Potency [37] of 0.81 µg/mL. It also gave a Virus Neutralization Potency [38] of 0.2 µg/mL, a Virus Neutralization Potency [39] of 0.03 µg/mL and a Virus Neutralization Potency [40] greater than 100 µg/mL.

B3: Antibody 1.1.104-1 (antibody, human IgG1, kappa, V domains shown)
VH: QVQLLQSGAAVTKPGASVRVSCEASGYNIRDYFIHWWRQAPGQGLQWVGWINPKTGQPNNPRQFQGRVSLTRHASWDFDTFSFYMDLKALRSDDTAVYFCARQRSDYWDFDVWGSGTQVTVSS
VL: DIQMTQSPSSLSASVGDTATITCQANGYLNWYQQRRGKAPKLLIYDGSKLERGVPSRFSGRRWGQEYTLTINNLQPEDIATYFCQVYEFFGPGTRLDLKR
B3 gave a Virus Neutralization Potency [2] of 1.44 µg/mL, a Virus Neutralization Potency [3] of 2.87 µg/mL and a Virus Neutralization Potency [4] of 4.34 µg/mL. The Virus Neutralization Potency [5] was 0.28 µg/mL, the Virus Neutralization Potency [6] was 0.1 µg/mL and the Virus Neutralization Potency [7] was 0.67 µg/mL. It also gave a Virus Neutralization Potency [8] of 1.32 µg/mL, a Virus Neutralization Potency [9] of 1.82 µg/mL and a Virus Neutralization Potency [10] of 6.57 µg/mL. For the same binder, the Virus Neutralization Potency [11] was 0.06 µg/mL, the Virus Neutralization Potency [12] was greater than 80 µg/mL and the Virus Neutralization Potency [13] was 1.1 µg/mL. For the same binder, the Virus Neutralization Potency [14] was 8.47 µg/mL, the Virus Neutralization Potency [16] was 2.8 µg/mL and the Virus Neutralization Potency [17] was 4.19 µg/mL. It also gave a Virus Neutralization Potency [18] of 1.22 µg/mL, a Virus Neutralization Potency [19] of 6.07 µg/mL and a Virus Neutralization Potency [20] of 0.16 µg/mL. The Virus Neutralization Potency [21] was 0.32 µg/mL, the Virus Neutralization Potency [22] was 4.34 µg/mL and the Virus Neutralization Potency [23] was 0.28 µg/mL. It also gave a Virus Neutralization Potency [24] of 0.36 µg/mL, a Virus Neutralization Potency [25] of 0.04 µg/mL and a Virus Neutralization Potency [26] of 10.6 µg/mL. For the same binder, the Virus Neutralization Potency [27] was 0.03 µg/mL, the Virus Neutralization Potency [28] was 0.02 µg/mL and the Virus Neutralization Potency [29] was 4.27 µg/mL. For the same binder, the Virus Neutralization Potency [30] was 0.34 µg/mL, the Virus Neutralization Potency [31] was 4.8 µg/mL and the Virus Neutralization Potency [32] was 2.33 µg/mL. The Virus Neutralization Potency [33] was 0.19 µg/mL, the Virus Neutralization Potency [34] was 7.9 µg/mL and the Virus Neutralization Potency [35] was 0.1 µg/mL. The Virus Neutralization Potency [36] was 2.33 µg/mL, the Virus Neutralization Potency [37] was 1.49 µg/mL and the Virus Neutralization Potency [38] was 0.28 µg/mL. The Virus Neutralization Potency [39] was 0.03 µg/mL and the Virus Neutralization Potency [40] was greater than 100 µg/mL.

B4: Antibody 1.36.35-1 (antibody, human IgG1, kappa, V domains shown)
VH: QVQLVQSGAEVKKPGASVRVSCKASGYNIRDYFMHWWRQAPGQGLQWVGWINPKTGQPNNPRQFQGRVTMTRHASWDFDTFSAYMDLSRLRSDDTATYFCARQRTDYWDFDVWGQGTMVTVSS
VL: DIQMTQSPSSLSASVGDRVTITCQANGYLNWYQQKPGKAPKLLIYDGSNLETGVPSRFSGSRWGQEYTLTISSLQPEDIATYFCQVYEFVGPGTNLDIKR
B4 was tested, and the Virus Neutralization Potency (IC50) [41] was 5.37 µg/mL, the Virus Neutralization Potency (IC50) [42] was greater than 20 µg/mL and the Virus Neutralization Potency (IC50) [43] was 0.32 µg/mL.

B5: Antibody A-1 (antibody, human IgG1, kappa)
heavy: QVQLLQSGAAVTKPGASVRVSCEASGYNIRDYFIHWWRQAPGQGLQWVGWINPKTGQPNNPRQFQGRVSLTRHASWDFDTFSFYMDLKALRSDDTAVYFCARQRSDYWDFDVWGSGTQVTVSSASTKGPSVFPLAPSSKSTSGGTAALGCLVKDYFPEPVTVSWNSGALTSGVHTFPAVLQSSGLYSLSSVVTVPSSSLGTQTYICNVNHKPSNTKVDKKVEPKSCDKTHTCPPCPAPELLAGPDVFLFPPKPKDTLMISRTPEVTCVVVDVSHEDPEVKFNWYVDGVEVHNAKTKPREEQYNSTYRVVSVLTVLHQDWLNGKEYKCKVSNKALPLPEEKTISKAKGQPREPQVYTLPPSREEMTKNQVSLTCLVKGFYPSDIAVEWESNGQPENNYKTTPPVLDSDGSFFLYSKLTVDKSRWQQGNVFSCSVLHEALHSHYTQKSLSLSPGK
light: DIQMTQSPSSLSASVGDTVTITCQANGYLNWYQQRRGKAPKLLIYDGSKLERGVPSRFSGRRWGQEYNLTINNLQPEDIATYFCQVYEFVVPGTRLDLKRTVAAPSVFIFPPSDEQLKSGTASVVCLLNNFYPREAKVQWKVDNALQSGNSQESVTEQDSKDSTYSLSSTLTLSKADYEKHKVYACEVTHQGLSSPVTKSFNRGEC
B5 was tested, and the Median IC95 (neutralization) [44] was 1.09 µg/mL.
